Square brackets hold non-standard residues; d marks the D form. Ends that are not written are not given here. 3Pal(6-Ph) = N[C@@H](Cc1ccc(-c2ccccc2)nc1)C(=O)O; Phe(4-COOH) = N[C@@H](Cc1ccc(C(=O)O)cc1)C(=O)O; NMePhe(3-Cl) = CN[C@@H](Cc1cccc(Cl)c1)C(=O)O; NMePhe(4-Cl) = CN[C@@H](Cc1ccc(Cl)cc1)C(=O)O; NMePhe(3-Me) = CN[C@@H](Cc1cccc(C)c1)C(=O)O; Bip = N[C@@H](Cc1ccc(-c2ccccc2)cc1)C(=O)O; Phe(3-Cl) = N[C@@H](Cc1cccc(Cl)c1)C(=O)O; Phe(4-Cl) = N[C@@H](Cc1ccc(Cl)cc1)C(=O)O; Phe(3-Me) = Cc1cccc(C[C@H](N)C(=O)O)c1; Phe(4-F) = N[C@@H](Cc1ccc(F)cc1)C(=O)O; Phe(4-Me) = Cc1ccc(C[C@H](N)C(=O)O)cc1; NMeF = CN[C@@H](Cc1ccccc1)C(=O)O; 3Pal = N[C@@H](Cc1cccnc1)C(=O)O; 4Pal = N[C@@H](Cc1ccncc1)C(=O)O; Aad = N[C@@H](CCCC(=O)O)C(=O)O; Cha = N[C@@H](CC1CCCCC1)C(=O)O
Legend:
[1] = molecular target: T1, BMP4 (Homo sapiens, UniProt P12644); experiment: BMP4 signal transduction inhibitory activity: SMAD1 phosphorylation by BMP4 stimulus, AlphaLISA SureFire, A549 cells; type: cell-based
T1 sequence (P12644 293-408): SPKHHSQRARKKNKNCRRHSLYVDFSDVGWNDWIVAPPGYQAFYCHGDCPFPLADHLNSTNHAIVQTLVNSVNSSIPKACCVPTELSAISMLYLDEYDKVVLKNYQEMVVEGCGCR

[2] = molecular target: T2, BMP7 (Homo sapiens, UniProt P18075); experiment: BMP7 signal transduction inhibitory activity: SMAD1 phosphorylation by BMP7 stimulus, A549 cells; type: cell-based
T2 sequence (P18075 293-431): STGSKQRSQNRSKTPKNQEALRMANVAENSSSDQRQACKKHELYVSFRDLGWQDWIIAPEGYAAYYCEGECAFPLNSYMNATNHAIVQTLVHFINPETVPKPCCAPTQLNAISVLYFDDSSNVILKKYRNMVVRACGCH
Method in brief: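 Inhibition was measured as loss of BMP7-induced SMAD1 phosphorylation, using 10 nM BMP7 on A549 cells. Most peptides were given as three-concentration sets, such as 1/10/100, 10/100/1,000, 100/300/1,000 or 10/30/90 nM. Others were given as eight 1/3-ratio dilutions from 100 or 1,000 nM, alongside Noggin as control.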

[3] = SMAD1 phosphorylation, BMP4 0.2 nM, peptide conc. in assay 0.2, 2, 20 nM
[4] = SMAD1 phosphorylation, BMP7 10 nM, peptide conc. in assay 1, 10, 100 nM
[5] = BMP4 0.2 nM stimulus, peptide conc. in assay 2, 20, 200 nM
[6] = BMP7 10 nM stimulus, peptide conc. in assay 10, 30, 90 nM

| Substance | aLISA BMP4 (0.2 nM) % inh [1, 5] | aLISA BMP7 (10 nM) % inh [2, 6] | also measured |
| --- | --- | --- | --- |
| 366 (FG[NMeF]G[Bip]GDE[Cha][Aad][NMeF]LHCG-NH2; not fully specified (N-terminus, bridges)) [compound 366] | – | – | aLISA BMP4 (0.2 nM) % inh [1, 3]: ND (the inhibitory activity was less than 30% at the maximum concentration evaluated); aLISA BMP7 (10 nM) % inh [2, 4]: D (showed less than 30% of inhibitory activity in 10 nM-addition zone and showed 30% or more of inhibitory activity in 100 nM-addition zone) |
| 367 (FG[NMeF]GFGDE[Cha]Q[NMeF]LHCG-NH2; not fully specified (N-terminus, bridges)) [compound 367] | – | – | aLISA BMP4 (0.2 nM) % inh [1, 3]: ND (the inhibitory activity was less than 30% at the maximum concentration evaluated); aLISA BMP7 (10 nM) % inh [2, 4]: D (showed less than 30% of inhibitory activity in 10 nM-addition zone and showed 30% or more of inhibitory activity in 100 nM-addition zone) |
| 368 (FG[NMeF]G[Bip]GDE[Cha]Q[NMeF]L[Phe(4-COOH)]CG-NH2; not fully specified (N-terminus, bridges)) [compound 368] | – | – | aLISA BMP4 (0.2 nM) % inh [1, 3]: ND (the inhibitory activity was less than 30% at the maximum concentration evaluated); aLISA BMP7 (10 nM) % inh [2, 4]: C (showed less than 30% of inhibitory activity in a zone to which the peptide was added in an amount of 1 nM and showed 30% or more of inhibitory activity in 10 nM-addition zone) |
| 369 (FG[NMeF]GFGDE[Cha]Q[NMeF]L[Phe(4-COOH)]CG-NH2; not fully specified (N-terminus, bridges)) [compound 369] | – | – | aLISA BMP4 (0.2 nM) % inh [1, 3]: ND (the inhibitory activity was less than 30% at the maximum concentration evaluated); aLISA BMP7 (10 nM) % inh [2, 4]: D (showed less than 30% of inhibitory activity in 10 nM-addition zone and showed 30% or more of inhibitory activity in 100 nM-addition zone) |
| 370 (FG[NMeF]G[3Pal(6-Ph)]GDE[Cha]Q[NMeF]L[Phe(4-COOH)]CG-NH2; not fully specified (N-terminus, bridges)) [compound 370] | – | – | aLISA BMP4 (0.2 nM) % inh [1, 3]: ND (the inhibitory activity was less than 30% at the maximum concentration evaluated); aLISA BMP7 (10 nM) % inh [2, 4]: D (showed less than 30% of inhibitory activity in 10 nM-addition zone and showed 30% or more of inhibitory activity in 100 nM-addition zone) |
| 371 (FGFGFGDDAAFLHCG; not fully specified; MOD_RES 3 F represents Methyl-L-phenylalanine(MeF); MOD_RES 5 F represents (S)-3-(1,1'-Biphenyl-4-yl)-2-aminopropanoic acid(Bph); MOD_RES 9 A represents (S)-2-Amino-3-cyclohexylpropanoic acid(Cha); MOD_RES 11 F represents Methyl-L-phenylalanine(MeF)) [compound 371] | – | – | aLISA BMP4 (0.2 nM) % inh ([1]; SMAD1 phosphorylation, BMP4 0.2 nM, peptide conc. in assay 2, 20, 200 nM): A (showed less than 30% of inhibitory activity in 2 nM-peptide-addition zone and showed 30% or more of inhibitory activity in 20 nM-addition zone); aLISA BMP7 (10 nM) % inh ([2]; SMAD1 phosphorylation, BMP7 10 nM, peptide conc. in assay 10, 30, 90 nM): E (showed 30% or more of inhibitory activity in 10 nM-addition zone) |
| 372 ([Phe(3-Cl)]G[NMeF]G[Bip]GDD[Cha]A[NMeF]LHCG-NH2; not fully specified (N-terminus, bridges); also: cyclic peptide, linkage not given here) [compound 372] | ND (the inhibitory activity was less than 30% at the maximum concentration evaluated) | G (showed less than 30% of inhibitory activity in 30 nM-addition zone and showed 30% or more of inhibitory activity in 90 nM-addition zone) | – |
| 373 ([Phe(4-Cl)]G[NMeF]G[Bip]GDD[Cha]A[NMeF]LHCG-NH2; not fully specified) [compound 373] | A (showed less than 30% of inhibitory activity in 2 nM-peptide-addition zone and showed 30% or more of inhibitory activity in 20 nM-addition zone) | F (showed less than 30% of inhibitory activity in 10 nM-addition zone and showed 30% or more of inhibitory activity in 30 nM-addition zone) | – |
| 374 ([Phe(3-Me)]G[NMeF]G[Bip]GDD[Cha]A[NMeF]LHCG-NH2; not fully specified) [compound 374] | ND (the inhibitory activity was less than 30% at the maximum concentration evaluated) | G (showed less than 30% of inhibitory activity in 30 nM-addition zone and showed 30% or more of inhibitory activity in 90 nM-addition zone) | – |
| 375 ([Phe(4-Me)]G[NMeF]G[Bip]GDD[Cha]A[NMeF]LHCG-NH2; not fully specified) [compound 375] | B (showed less than 30% of inhibitory activity in 20 nM-addition zone and showed 30% or more of inhibitory activity in 200 nM-addition zone) | F (showed less than 30% of inhibitory activity in 10 nM-addition zone and showed 30% or more of inhibitory activity in 30 nM-addition zone) | – |
| 376 (FG[NMeF]G[3Pal]GDD[Cha]A[NMeF]LHCG-NH2; not fully specified) [compound 376] | ND (the inhibitory activity was less than 30% at the maximum concentration evaluated) | G (showed less than 30% of inhibitory activity in 30 nM-addition zone and showed 30% or more of inhibitory activity in 90 nM-addition zone) | – |
| 377 (FG[NMeF]G[4Pal]GDD[Cha]A[NMeF]LHCG-NH2; not fully specified) [compound 377] | ND (the inhibitory activity was less than 30% at the maximum concentration evaluated) | F (showed less than 30% of inhibitory activity in 10 nM-addition zone and showed 30% or more of inhibitory activity in 30 nM-addition zone) | – |
| 378 (FG[NMeF]G[Phe(4-F)]GDD[Cha]A[NMeF]LHCG-NH2; not fully specified) [compound 378] | ND (the inhibitory activity was less than 30% at the maximum concentration evaluated) | F (showed less than 30% of inhibitory activity in 10 nM-addition zone and showed 30% or more of inhibitory activity in 30 nM-addition zone) | – |
| 379 (FG[NMeF]G[Phe(3-Cl)]GDD[Cha]A[NMeF]LHCG-NH2; not fully specified) [compound 379] | ND (the inhibitory activity was less than 30% at the maximum concentration evaluated) | G (showed less than 30% of inhibitory activity in 30 nM-addition zone and showed 30% or more of inhibitory activity in 90 nM-addition zone) | – |
| 380 (FG[NMeF]G[Phe(4-Cl)]GDD[Cha]A[NMeF]LHCG-NH2; not fully specified) [compound 380] | B (showed less than 30% of inhibitory activity in 20 nM-addition zone and showed 30% or more of inhibitory activity in 200 nM-addition zone) | F (showed less than 30% of inhibitory activity in 10 nM-addition zone and showed 30% or more of inhibitory activity in 30 nM-addition zone) | – |
| 381 (FG[NMeF]G[Phe(3-Me)]GDD[Cha]A[NMeF]LHCG-NH2; not fully specified) [compound 381] | ND (the inhibitory activity was less than 30% at the maximum concentration evaluated) | G (showed less than 30% of inhibitory activity in 30 nM-addition zone and showed 30% or more of inhibitory activity in 90 nM-addition zone) | – |
| 382 (FG[NMeF]G[Phe(4-Me)]GDD[Cha]A[NMeF]LHCG-NH2; not fully specified) [compound 382] | ND (the inhibitory activity was less than 30% at the maximum concentration evaluated) | G (showed less than 30% of inhibitory activity in 30 nM-addition zone and showed 30% or more of inhibitory activity in 90 nM-addition zone) | – |
| 383 (FG[NMeF]GYGDD[Cha]A[NMeF]LHCG-NH2; not fully specified) [compound 383] | ND (the inhibitory activity was less than 30% at the maximum concentration evaluated) | F (showed less than 30% of inhibitory activity in 10 nM-addition zone and showed 30% or more of inhibitory activity in 30 nM-addition zone) | – |
| 384 (FG[NMePhe(3-Cl)]G[Bip]GDD[Cha]A[NMeF]LHCG-NH2; not fully specified) [compound 384] | B (showed less than 30% of inhibitory activity in 20 nM-addition zone and showed 30% or more of inhibitory activity in 200 nM-addition zone) | E (showed 30% or more of inhibitory activity in 10 nM-addition zone) | – |
| 385 (FG[NMePhe(4-Cl)]G[Bip]GDD[Cha]A[NMeF]LHCG-NH2; not fully specified) [compound 385] | B (showed less than 30% of inhibitory activity in 20 nM-addition zone and showed 30% or more of inhibitory activity in 200 nM-addition zone) | F (showed less than 30% of inhibitory activity in 10 nM-addition zone and showed 30% or more of inhibitory activity in 30 nM-addition zone) | – |
| 386 (FG[NMePhe(3-Me)]G[Bip]GDD[Cha]A[NMeF]LHCG-NH2; not fully specified) [compound 386] | B (showed less than 30% of inhibitory activity in 20 nM-addition zone and showed 30% or more of inhibitory activity in 200 nM-addition zone) | F (showed less than 30% of inhibitory activity in 10 nM-addition zone and showed 30% or more of inhibitory activity in 30 nM-addition zone) | – |

Reference: patent publication US20250361274A1, “PEPTIDE AND PEPTIDE-CONTAINING AGENT” (PEPTIDREAM INC., priority 2022, published 2025)
